According to patent US20090292003A1:

Biological target: short 17-residues peptide (cargo titrated against CADY-2)
Test: steady state Trp fluorescence quenching, fixed CADY (0.1 uM) titrated with cargo peptide in PBS, quadratic fit

B1: CADY-2 (Ac-…-Cya) (peptide)
peptide: GLWRALWRALWRSLWKLKWKV
HELM: PEPTIDE1{[ac].G.L.W.R.A.L.W.R.A.L.W.R.S.L.W.K.L.K.W.K.V.[SCCN[*:1]]}$$$$V2.0
SMILES: CC(=O)NCC(=O)N[C@@H](CC(C)C)C(=O)N[C@@H](Cc1c[nH]c2ccccc12)C(=O)N[C@@H](CCCNC(=N)N)C(=O)N[C@@H](C)C(=O)N[C@@H](CC(C)C)C(=O)N[C@@H](Cc1c[nH]c2ccccc12)C(=O)N[C@@H](CCCNC(=N)N)C(=O)N[C@@H](C)C(=O)N[C@@H](CC(C)C)C(=O)N[C@@H](Cc1c[nH]c2ccccc12)C(=O)N[C@@H](CCCNC(=N)N)C(=O)N[C@@H](CO)C(=O)N[C@@H](CC(C)C)C(=O)N[C@@H](Cc1c[nH]c2ccccc12)C(=O)N[C@@H](CCCCN)C(=O)N[C@@H](CC(C)C)C(=O)N[C@@H](CCCCN)C(=O)N[C@@H](Cc1c[nH]c2ccccc12)C(=O)N[C@@H](CCCCN)C(=O)N[C@H](C(=O)NCCS)C(C)C
With B1 the Kd was 19 nM.
